Laboratory results published in patent US20160068605A1 (Janssen / Centocor, published 2016).
Substitutions are numbered along the chain they refer to. Names may count otherwise.

B1: G11 (antibody, V domains shown)
VH: EVQLLESGGGLVQPGGSLRLSCAASGFTFSSYGMSWVRQAPGKGLEWVSGINGGGGSKYYADSVKGRFTISRDNSKNTLYLQMNSLRAEDTAVYYCAKTSAQRFDYWGQGTLVTVSS
VL: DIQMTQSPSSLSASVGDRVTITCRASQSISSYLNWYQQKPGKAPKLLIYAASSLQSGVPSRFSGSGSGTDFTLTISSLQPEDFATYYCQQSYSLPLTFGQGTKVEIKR
notes: in-house phage-derived anti-CD3 positive control with the same Fc region as the tested antibodies
B2: CD3B124 (antibody, human IgG1, V domains shown)
VH: EVKLLESGGGLVQPKGSLKLSCAASGFTFNTYAMNWVRQAPGKGLEWVARIRSKYNNYATYYADSVKDRFTISRDDSQSILYLQMNNLKTEDTAMYYCVRHGNFGNSYVSWFAYWGQGTLVTVSA
VL: QAVVTQESALTTSPGETVTLTCRSSTGAVTTSNYANWVQEKPDHLFTGLIGGTNKRAPGVPARFSGSLIGDKAALTITGAQTEDEAIYFCALWYSNLWVFGGGTKLTVL
notes: Chimeric: VH and VL of SP34 with murine framework and a human IgG1 Fc; also called in-house chimeric SP34-derived antibody
B3: CD3B143 (antibody, IgG1, V domains shown)
VH: EVQLVESGGGLVQPGGSLRLSCAASGFTFNTYAMNWVRQAPGKGLEWVARIRSKYNNYATYYAASVKGRFTISRDDSKNSLYLQMNSLKTEDTAVYYCARHGNFGNSYVSWFAYWGQGTLVTVSS
VL: QAVVTQEPSLTVSPGGTVTLTCRSSTGAVTTSNYANWVQQKPGQAPRGLIGGTNKRAPGTPARFSGSLLGGKAALTLSGAQPEDEAEYYCALWYSNLWVFGGGTKLTVL
notes: IgG1 constant region with L234A, L235A, F405L; human lambda light chain constant region
B4: CD3B148 (antibody, IgG1, V domains shown)
VH: B3 VH with V5L, A64D, D76N, S80T, K89R, T90A, R100K
VL: QSVLTQPPSVSAAPGQKVTISCRSSTGAVTTSNYANWVQQLPGTAPKGLIGGTNKRAPGIPDRFSGSKSGTSATLGITGLQTGDEADYYCALWYSNLWVFGGGTKLTVL
notes: as for B3
B5: CD3B156 (antibody, IgG1, V domains shown)
VH: B3 VH with R19K, P41S, A49G, N57G, S80T, L81A, A99T
VL: B4 VL
notes: as for B3
B6: CD3B151 (antibody, IgG1, V domains shown)
VH: B3 VH with V5L, A64D, D76N, S80T, K89R, T90A, A99V, R100K
VL: B3 VL
notes: as for B3
B7: CD3B155 (antibody, IgG1, V domains shown)
VH: B3 VH with R19K, P41S, A49G, N57G, S80T, L81A, A99T
VL: B3 VL
notes: as for B3
B8: CD3B154 (antibody, IgG1, V domains shown)
VH: B3 VH with V5L, A64D, D76N, S80T, K89R, T90A, A99V, R100K
VL: B3 VL with A2T, A80V
notes: as for B3
B9: CD3B144 (antibody, IgG1, V domains shown)
VH: B3 VH
VL: B4 VL
notes: as for B3
B10: CD3B158 (antibody, IgG1, V domains shown)
VH: B3 VH with R19K, P41S, A49G, N57G, S80T, L81A, A99T
VL: B3 VL with A2T, A80V
notes: as for B3
B11: CD3B152 (antibody, IgG1, V domains shown)
VH: B3 VH with V5L, A64D, D76N, S80T, K89R, T90A, A99V, R100K
VL: B4 VL
notes: as for B3

Assays:
[1] = target: T1, cell-surface CD3 epsilon on primary human T cells (human, UniProt P07766 23-207); assay: flow cytometry on primary human T cells, anti-human IgG Alexa Fluor 647; MFI
T1 construct: whole, on cells; part of the CD3/TCR complex on the cells
T1 sequence (P07766 23-207): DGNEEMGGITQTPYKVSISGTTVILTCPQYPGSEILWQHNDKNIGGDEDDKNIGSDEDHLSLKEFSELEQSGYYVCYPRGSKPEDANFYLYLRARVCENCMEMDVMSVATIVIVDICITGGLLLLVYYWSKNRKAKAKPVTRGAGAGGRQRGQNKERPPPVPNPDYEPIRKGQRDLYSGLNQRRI
Protocol: (§1) The resulting panel of anti-CD3 antibodies was tested for binding against cell-surface CD3ε on primary human T cells. To do this, binding of antibodies from expression supernatants was visualized using a polyclonal anti-human secondary antibody and analyzed by flow cytometry. Briefly, binding of anti-CD3 antibodies to cell-surface CD3ε was assessed by flow cytometry using primary Human T lymphocytes purified by negative selection (Biological Specialty, Colmar, USA). Expression supernatants or purified antibodies were normalized to 10 μg/ml in media or FACS buffer (BD BioSciences), respectively. 2×10⁵ cells were aliquoted into wells of a 96 well round-bottomed plate (CoStar) for labeling. Antibodies in expression supernatant were added to cells and incubated for 45 min at 4° C. Following centrifugation at 1300 rpm for 3 min and removal of supernatant, 50 μL of anti-human IgG (H+L) Alexa Fluor 647 secondary antibody (Life technologies Inc.) was incubated with the cells at a final concentration of 10 μg/mL for 30 min at 4° C. away from direct light. Following washing and resuspension in 30 μL FACs buffer (BD BioSciences). Sample collection was performed on an Intellicyt HTFC system using ForeCyt software. Viable single cells were gated prior to analysis of binding using the green or red fixable live/dead dyes (Life Technologies Inc.) and forward/side scatter area and height parameters, respectively. Graphs were generated in GraphPad Prism version 5 using mean fluorescence intensity values.

[2] = target: T2, cell-surface CD3 epsilon on primary cynomolgus T cells (cynomolgus monkey, UniProt Q95LI5 22-198); assay: flow cytometry on primary cynomolgus CD4+ T cells, anti-human IgG Alexa Fluor 647; MFI
T2 construct: whole, on cells; also called cynomolgus CD3e; Cyno T-cells
T2 sequence (Q95LI5 22-198): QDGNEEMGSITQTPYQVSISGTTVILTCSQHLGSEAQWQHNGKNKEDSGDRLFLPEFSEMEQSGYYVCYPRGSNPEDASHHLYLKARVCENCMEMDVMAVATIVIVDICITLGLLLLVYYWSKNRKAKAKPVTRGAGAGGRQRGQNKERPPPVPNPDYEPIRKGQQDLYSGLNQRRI
Protocol: as §1
Binding analysis of the anti-CD3 hits to primary cynomolgusCD4⁺ T cells was then tested in order to assess the retention of cross-reactivity. Purified CD4⁺ T cells from the peripheral blood of cynomolgus monkeys (Zen Bio, Triangle Research Park, USA were used). Assay protocols were similar to those described above.

Row | Binder | binding result [1] | binding result [2]
1 | B1 | binds | 
2 | B2 |  | binds
3 | B3 | binds | binds
4 | B4 |  | no binding (tested: not printed)
5 | B5 | binds | binds
6 | B6 | binds | binds
7 | B7 | binds | binds
8 | B8 | binds | binds
9 | B9 | no binding | 
10 | B10 | binds | binds
11 | B11 | no binding | no binding (tested: not printed)
